Laboratory results reported in US20240383970A1 (BEIJING IMMUNOCHINA PHARMACEUTICALS, published 2024).
Positions count from the first letter of the chain named.

Molecular target: T1, CAR targeting CD19 containing a Strep-Tag II tag, on CAR-T cells (UniProt P01732 138-206; Q07011 214-255; P20963 52-163)
T1 construct: domain: CD8α hinge region, CD8α transmembrane region;domain: intracellular region of 4-IBB;domain: intracellular region of CD3ζ; Expressed on human T cells after lentiviral transduction; also called CAR-T cells containing a Strep-Tag II tag; Strep-Tag II short peptide
T1 sequence (P20963 other isoform, or with tags, fused parts or gaps): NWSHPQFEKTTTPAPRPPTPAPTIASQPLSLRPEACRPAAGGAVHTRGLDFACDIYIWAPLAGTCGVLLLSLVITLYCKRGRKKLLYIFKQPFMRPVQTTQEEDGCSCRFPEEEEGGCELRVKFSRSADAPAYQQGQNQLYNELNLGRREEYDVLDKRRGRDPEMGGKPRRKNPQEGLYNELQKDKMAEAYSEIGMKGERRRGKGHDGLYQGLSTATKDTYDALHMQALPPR
Test: flow cytometry titration (10 concentrations) on CAR-T cells with Strep-Tag II tag; filing equates EC50 with KD (saturated concentration method)
Text: The antibody affinity detection of the present invention adopts the dynamic equilibrium assay method (saturated concentration method). In the presence of a small amount of antigen, the antibody is subjected to gradient dilution to detect the concentration of the antigen-antibody complex. When the concentration of the antigen-antibody complex accounts for half of the total antigen concentration, the corresponding concentration value (EC50) of the antibody is the KD value of the antibody relative to the antigen.
CAR-T cells containing a Strep-Tag II tag were collected, washed with DPBS and counted. The cells were dispensed into several EP tubes at approximately 3×10⁵ cells per tube. After centrifugation to remove the supernatant, 8A882 antibody or 8F8D1 antibody and a positive control antibody (commercial Strep-Tag II antibody, Abcam; Cat #: ab184224) diluted in serial gradient for 10 concentrations were added and incubated at room temperature for 15 minutes. After washing the cells twice with DPBS, PE-labeled rat anti-mouse IgG was added, and incubated at room temperature for 15 minutes. After washing the cells twice, FACS analysis and GraphPad Prism software were used to calculate the EC50 value. […] Compared with the positive control antibody, the two strain antibodies of the present invention have high affinity.

B1: 8A882 antibody (antibody, mouse IgG1, kappa, V domains shown)
VH: EVQLQQSGPELVKPGASVKMSCKASGYTFTDYYMKWVKQSHGKSLEWIGDINPNNGDTFYNQKFKGKATLTVDKSSSSAYMQLNSLTSEDSAVYYCARYYGNSSPWFAYWGQGTLVTVSA
VL: DIVLTQSPASLAVSLGQRATISCKASQSVDYDGDSYMNWYQQKPGQPPKLLIYAASNLQSGIPARFSGSGSGTDFTLNIHPVEEEDTATYYCQQITEDPWTFGGRTKLEIKR
notes: Mouse monoclonal antibody from a hybridoma, purified from ascites on a Protein A/G column
  EC50: 0.4 nM

B2: 8F8D1 antibody (antibody, V domains shown)
VH: B1 VH with S44R, S78T, N102R, A108P
VL: B1 VL with A12G, Y31N, D32S, Q59E, T87A, T96N
notes: Mouse monoclonal antibody from a hybridoma, purified from ascites on a Protein A/G column; also called PE-labeled 8F8D1 antibody
  EC50: 0.2 nM
